Drawing on US20140348747A1, this text covers Kd for 1 molecule.

Positions count from the first letter of the chain named. Where “and” joins values, the source holds several entries; their conditions need not be identical. Equal entries are not always repeated. Where two headings read alike, the source gives them in different places.

What all share (settings): modification not given
The target of experiment [1] is T1, VTGW.
T1 chain: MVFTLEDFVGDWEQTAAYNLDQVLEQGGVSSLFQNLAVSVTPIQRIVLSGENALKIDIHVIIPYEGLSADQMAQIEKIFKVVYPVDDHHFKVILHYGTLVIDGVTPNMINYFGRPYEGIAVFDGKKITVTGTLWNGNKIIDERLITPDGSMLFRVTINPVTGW

In experiment [2] the target is T2, wild-type non-luminescent polypeptide (WT fragment of residues 1-156 of NanoLuc).
T2 chain: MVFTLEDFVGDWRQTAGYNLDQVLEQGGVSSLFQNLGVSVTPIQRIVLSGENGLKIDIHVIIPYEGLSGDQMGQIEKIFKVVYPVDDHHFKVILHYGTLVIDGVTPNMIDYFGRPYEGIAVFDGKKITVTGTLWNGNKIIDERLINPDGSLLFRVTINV

Experiment [3] concerns the target T3, F31L+H93P.
T3 chain: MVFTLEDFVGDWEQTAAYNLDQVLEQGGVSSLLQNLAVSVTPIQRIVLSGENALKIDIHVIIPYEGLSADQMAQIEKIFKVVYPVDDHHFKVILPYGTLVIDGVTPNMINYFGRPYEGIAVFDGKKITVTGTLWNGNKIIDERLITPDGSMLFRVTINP

The target of experiment [4] is T4, L46R.
T4 chain: T3 chain with L33F, L48R, P95H

Experiment [5] deals with T5, P157H.
T5 chain: T3 chain with L33F, P95H, P159H

Experiment [6] concerns the target T6, VTGWR.
T6 chain: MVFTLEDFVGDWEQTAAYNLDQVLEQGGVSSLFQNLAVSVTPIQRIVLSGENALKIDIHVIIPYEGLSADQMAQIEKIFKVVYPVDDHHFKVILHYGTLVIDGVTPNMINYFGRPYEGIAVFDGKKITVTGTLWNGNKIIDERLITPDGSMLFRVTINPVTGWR

Experiment [7] deals with VT.
The target in experiment [8] is T2, wild-type non-luminescent polypeptide ….
Experiment [9] deals with T7, V58A.
T7 chain: T3 chain with L33F, V60A, P95H

In experiment [10] the target is 5P+VTG.
For experiment [11], the target named is 5P+VT.
In experiment [12] the target is T8, F31L.
T8 chain: T3 chain with P95H

The target in experiment [13] is T9, P157S.
T9 chain: T3 chain with L33F, P95H, P159S

Experiment [14] concerns the target T2, wild-type non-luminescent polypeptide ….
The target in experiment [15] is T10, D2.
T10 chain: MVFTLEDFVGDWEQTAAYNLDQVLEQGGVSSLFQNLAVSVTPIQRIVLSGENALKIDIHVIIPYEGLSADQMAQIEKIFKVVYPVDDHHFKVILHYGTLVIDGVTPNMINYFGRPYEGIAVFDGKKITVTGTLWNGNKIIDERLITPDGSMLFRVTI

For experiment [16], the target named is T11, NLpoly 11S (12-A51T).
T11 chain: T3 chain with L48R, K77E, I78V, I109L, P159S

The target of experiment [17] is T12, H93P.
T12 chain: T3 chain with L33F

The target of experiment [18] is 5P+V.
Experiment [19] addresses AA.
Experiment [20] has as its target T13, A51T.
T13 chain: T3 chain with L33F, A53T, P95H

Experiment [21] concerns the target VA.
For experiment [22], the target named is T14, H57R.
T14 chain: T3 chain with L33F, H59R, P95H

NVSGWRLFKKISN [NLpep78]: the Kd in experiment [1] was 13 nM; in experiment [2], 1.75 mM; in experiment [3], 17.2 nM; in experiment [4], 18.4 nM; in [5], 17.9 nM; in experiment [6] it was 13.3 nM. Besides, the equilibrium dissociation constant (Kd) stood at 13.1 nM in [7]; 784 nM in [8]; 15.2 nM in experiment [9]; 26 nM in experiment [10]; 25.4 nM in experiment [11]; 14.8 nM in experiment [12]. Further, the Kd in experiment [13] was 15.2 nM; in experiment [14] it was 341 nM and 1060 nM; in experiment [15], 10.2 nM; in experiment [16], 26 µM; in experiment [17], 24 nM; in experiment [18] it was 24.9 nM. For the same molecule, the Kd in experiment [19] was 11.3 nM; in experiment [20], 18.8 nM; in [21] it was 14.6 nM; in experiment [22] it was 14.1 nM.

In general, Kd refers to the equilibrium constant for the complex coming apart.
